The source of these data is US20250136662A1, “CD95 POLYPEPTIDES” (Deutsches Krebsforschungszentrum Stiftung des öffentlichen …, priority 2021, published 2025).

Changes are numbered by the printed parent chain. Names and notes keep the numbering of the source.

Holding throughout (format): cell-based
One assay relates to cell cycle. Nature of the assay: Cell cycle assessment of cells overexpressing CD95 variants. As to conditions: overexpressed using lentiviral vectors two weeks prior to cell cycle assessment. The text has this:
FIG. 6: Effect of CD95 variants on cell cycle. Shown is the percentage of cells in G2, S, or G1 phase, respectively, in cell overexpressing effector polypeptides. […] Abbreviations as in FIG. 5.
Indicated variants were overexpressed using lentiviral vectors two weeks prior to cell cycle assessment.

Assay [1] relates to membrane lipid composition of cells. Nature of the assay: Lipidomics profiling of cells overexpressing CD95 variants (membrane lipid composition, UMAP clustering). As to conditions: overexpressed using lentiviral vectors two weeks prior to lipidomics profiling. The text has this: (§1) FIG. 5: Changes of lipid composition of membranes of cells in the presence of CD95 variants. A) Shown are average mol % concentrations of the indicated lipid classes; Abbreviations: WT: wildtype CD95; KO: CD95-knockout; sM: single mutant (R171E), dM: double mutant (R192E/K193E); tM: triple mutant (R171E/R192E/K193E); PC: phosphatidylcholines; PE: phosphatidylethanolamines, PS: phosphatidylserines, PI: phosphatidylinositoles, SM: sphingomyelins, CE: cholesteryl esters. “a”X relates to acyl-X, e.g. aPC is Acyl-phosphatidylcholines; “e”X relates to Ether-X or X containing one odd-chain fatty acyl species. B) Clustering of cells based on lipid profile changes, UMAP representation. C) average cell size as cell area of cells expressing variants of CD95.
(§2) Indicated variants were overexpressed using lentiviral vectors two weeks prior to lipidomics profiling. […] Also, average cell size was decreased in cells expressing the triple mutant CD95, very similar to CD95 KO cells.

A further assay deals with transferrin uptake. Nature of the assay: Transferrin uptake assay (endocytotic activity), flow cytometry. As to conditions: lentiviral overexpression two weeks prior, uptake after 10, 20 and 30 min. Here is the method:
FIG. 8: Effect of CD95 variants on endocytotic activity of cells. Shown is the relative transferrin uptake of treated cells over time, i.e. after 10, 20, and 30 min. Abbreviations as in FIG. 5.
Indicated variants were overexpressed using lentiviral vectors two weeks prior to assessment of the endocytotic activity by a transferrin uptake assay. Transferrin uptake was assessed after the indicated time points via flow cytometry.

Another assay concerns Caspase 8 cleavage. Nature of the assay: Caspase-8 cleavage in protein lysates of T98G cells (apoptosis). As to conditions: upon EGFR stimulation. Here is the method:
FIG. 11: Impact of CD95 mutants on apoptosis (caspase-8 cleavage). Protein lysates were analysed for the level of cleaved and total caspase-8. […] Bar show, in each case from left to right, relative expression of total caspase, p44, p43, and p18.
(§3) T98G cells were serum starved, control (Co) cells were left untreated otherwise stimulated with 100 ng/ml of EGF-L for 10 mins. Protein samples were analysed by western blot for pAKT (ser 473), pEGFR and pERK and the total amount of protein (pan antibody). Relative expression of the protein was calculated where phospho-proteins were normalized to their total proteins. […] TMD is CD95 with the indicated mutation(s). Protein lysates were also analysed for the level of cleaved and total caspase (FIG. 11).

The next assay deals with EGFR phosphorylation. Briefly: Western blot, fraction of phosphorylated EGFR in cells overexpressing CD95 variants (Example 8). As to conditions: lentiviral overexpression two weeks prior, untreated or 20 ng/ml CD95-ligand or 100 ng/ml EGF-L for 10 minutes. Here is the method: (§4) FIG. 7: Effect of CD95 variants on cell signaling; shown is relative content in pAkt and pEGFR in cells transfected to overexpress effector polypeptides as indicated. Abbreviations as in FIG. 5.
(§5) Indicated variants were overexpressed using lentiviral vectors two weeks prior to treatment. Cells were left untreated (co) or exposed to 20 ng/ml of CD95-ligand or 100 ng/ml of EGF-L for 10 minutes and the fraction phosphorylation among total Akt and EGFR measured by Western Blot.
(In general: A western blot detects proteins with antibodies after separation by electrophoresis.)

The next assay concerns cell size. Briefly: Average cell size as cell area of cells expressing CD95 variants. The note with it: lentiviral overexpression, very similar to CD95 KO cells.
Excerpt: as §1, §2

For the next assay, the system named is AKT activation. Briefly: Western blot pAKT (ser 473) relative to total Akt in T98G cells (Example 11). As to conditions: T98G cells serum starved, untreated or 100 ng/ml EGF-L for 10 mins. Here is the method:
(§6) FIG. 10: Impact of CD95 mutants on activation of Akt and EGFR. […] Abbreviations as in FIG. 5.
as §3

For assay [2], the system named is Akt phosphorylation (Ser 473). Briefly: Western blot, fraction of phosphorylated Akt in cells overexpressing CD95 variants (Example 8). As to conditions: lentiviral overexpression two weeks prior, untreated or 20 ng/ml CD95-ligand or 100 ng/ml EGF-L for 10 minutes. Here is the method: as §4, §5
For another assay, the system named is EGFR activation. Nature of the assay: Western blot pEGFR relative to total EGFR in T98G cells (Example 11). As to conditions: T98G cells serum starved, untreated or 100 ng/ml EGF-L for 10 mins. Here is the method:
as §6, §3

B1: double mutant: CD95 variant with R192E/K193E exchanges (cf. SEQ ID NO:31), expressed from lentiviral or AAV vector (protein)
chain: MLGIWTLLPLVLTSVARLSSKSVNAQVTDINSKGLELRKTVTTVETQNLEGLHHDGQFCHKPCPPGERKARDCTVNGDEPDCVPCQEGKEYTDKAHFSSKCRRCRLCDEGHGLEVEINCTRTQNTKCRCKPNFFCNSTVCEHCDPCTKCEHGIIKECTLTSNTKCKEEGSQSNLGWLCLLLLPIPLIVWVKEEEVQKTCRKHRKENQGSHESPTLNPETVAINLSDVDLSKYITTIAGVMTLSQVKGFVRKNGVNEAKIDEIKNDNVQDTAEQVQLLRNWHQLHGKKEAYDTLIKDLKKANLCTLAEKIQTIILKDITSDSENSNFRNEIQSLV
modifications: R192E/K193E double mutein (dM)
Consider B1, for which the “effect on cell cycle (cells in G2, S or G1 phase)” value (“effect on cell cycle” below) in the assay with cell cycle is listed as “G1 arrest”. Besides, the “effect on cell cycle” value in the assay with cell cycle (listed as double mutation variant) is given as “strong G1 arrest”. In assay [1], the “changes in membrane lipid composition” value is given as “distinct changes in membrane lipid composition” and the “clustering of cells based on lipid profile changes (UMAP)” value was “clustered similarly”.

B2: single mutant: CD95 variant with R171E exchange (cf. SEQ ID NO:30), expressed from lentiviral or AAV vector (protein)
chain: B1 chain with Q171E, E192R, E193K
modifications: R171E single mutein (sM)
Regarding B2, the transferrin uptake entry in the assay on transferrin uptake is on record as “significantly reduced transferrin uptake”. In assay [1], the “clustering of cells based on lipid profile changes (UMAP)” value was “clustered similarly”.

B3: triple mutant: CD95 variant with R171E/R192E/K193E exchanges (cf. SEQ ID NO:32), expressed from lentiviral or AAV vector (protein)
chain: B1 chain with Q171E
modifications: R171E/R192E/K193E triple mutein (tM)
As for B3, the “Caspase 8 cleavage” value in the assay on Caspase 8 cleavage is reported as “noticeable Caspase 8 cleavage”. In addition, the “EGFR phosphorylation, fraction among total EGFR” value with EGFR phosphorylation is given as “increased EGFR phosphorylation”. Also, the “effect on cell cycle” value in the assay on cell cycle was “G1 arrest”. The “effect on cell cycle” value in the assay with cell cycle (listed as triple mutation variant) was “strong G1 arrest”. Moreover, in the assay on cell size, the average cell size entry is given as “decreased”. Moreover, in the assay with AKT activation, the “level of AKT activation (pAKT ser 473 normalized to total)” value is on record as “decrease in the level of AKT activation”. Further, the “Akt phosphorylation (Ser 473), fraction among total Akt” value in [2] is “reduced Akt phosphorylation”. Also, the “EGFR activation (pEGFR normalized to total)” value with EGFR activation is on record as “increase in the EGFR activation”. For the same molecule, the transferrin uptake entry in the assay with transferrin uptake is on record as “significantly reduced transferrin uptake”. Moreover, in assay [1], the “changes in membrane lipid composition” value is “distinct changes in membrane lipid composition” and the “clustering of cells based on lipid profile changes (UMAP)” value was “very similar clustering to the KO cells”.
